{"source": "the nanobody polyreactivity screen of Harvey et al. (2022)"}
{"experiment": "yeast display, Sf9 membrane polyspecificity reagent, FACS + sequencing; frameworks hold sequencing errors", "summary_of_the_method": "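Nanobodies from a synthetic yeast display library (Saccharomyces cerevisiae BJ5465), induced 36–48 hours with galactose, were stained 1 hour at 4 °C with 10% biotinylated, detergent-solubilized Sf9 membrane reagent, enriched on streptavidin microbeads, then FACS-sorted. Anti-HA (expression) and streptavidin (reagent binding) fluorescence set low and high (top ~1%) gates. Polyreactivity labels come from the gate of origin. Genes were colony-PCR amplified, MiSeq 2 × 250 sequenced and filtered by CDR length.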"}
{"sequence": "QVQLVESGGGLVQAGGSLRLSCAASGRIIWANTMGCYRQAPGKEREFVAAISWSTDSTYYADSVKGRFTISRDNAKNTVYFQMNSLKPEDTAVYYCNARAGYPWGVFYVTYVYWGQGTQVTVSS", "polyreactivity (PSR sort gate)": "low polyreactivity"}
{"sequence": "QVQLVESGGGLVQAGGSLRLSCAASGRIIWSNTMGWYRQAPGKESELVAASSGRGGSTYYADSVKGRFTISRDNAKNTVYLQMNSLKPEDTAVYYCAAKPTRSRKIYEYWGQGTQVTVSS", "polyreactivity (PSR sort gate)": "low polyreactivity"}
{"sequence": "QVQLVESGGGLVQAGGSLRLSCAASGRIIYAYAMGWYRQTPGKERELVAAISTRGGTTYYADSVKGRFTISRDNAKNTVYLQMNSLKPEDTAVYYCNALRVSRRVGYDSWGKGTQVTVSS", "polyreactivity (PSR sort gate)": "high polyreactivity"}
{"sequence": "QVQLVESGGGLVQAGGSLRLSCAASGRIIYKNAMGWYRQAPGKETELVAAINSSGGSTYYGDSVKGRFTISRDNAKNTVYLQMNCLKPEDSAVYYCAAYDYGRFGKLNYWGQGSQVTVSS", "polyreactivity (PSR sort gate)": "low polyreactivity"}
{"sequence": "QVQLVESGGGLVQAGGSLRLSCAASGRIIYRNAMGWSRQSPGKEREMVATITKNGGATYYADSVKGRFTISRDNAKNTVYLQMNTLKPEDTAVYYCATGSRGYKASPQWRDYWGQGTQVTVSS", "polyreactivity (PSR sort gate)": "high polyreactivity"}
{"sequence": "QVQLVESGGGLVQAGGSLRLSCAASGRIIYTYALGWYRQAPGKERELVAAISWSGGSTYYADSVKGRFTISRDNAKNTVYLQMNSLKREDTAVYYCNAAYYGYENLSKRGYWGQGTQVTVSS", "polyreactivity (PSR sort gate)": "high polyreactivity"}
{"sequence": "QVQLVESGGGLVQAGGSLRLSCAASGRIIYWYAMGWYRQAPGKERELVAAIDWSAASTYYADSVKGRFTISRDNAKNTVYLQMNSLKPEDTAVYYCNRRGRGGESYRTTPGALGYWGQGTQVTVSS", "polyreactivity (PSR sort gate)": "low polyreactivity"}
{"sequence": "QVQLVESGGGLVQAGGSLRLSCAASGRIIYYAMGRYRQAPGKERELVAAITRNGGTYADSVKGRFTISRDNSKNTVYLPMISLKAEDSAVYYCNADPDFGDDYWGQGTQVTVSS", "polyreactivity (PSR sort gate)": "low polyreactivity"}
{"sequence": "QVQLVESGGGLVQAGGSLRLSCAASGRILAANAMGWYRQAPGKERELVAAISWSGGRTYYADSVKGRFTISRDNAKNTVYLQMNSLKPEDTAVYYCNKLALAGYDYWGQGTQVTVSS", "polyreactivity (PSR sort gate)": "high polyreactivity"}
{"sequence": "QVQLVESGGGLVQAGGSLRLSCAASGRILADNAMGWYRQAPGKERELVAAISESGGSTYYADSVKGRFTISRDNAKNTVYLQMNSLKAEDTAVYYCAADTASIYYEYYYWGQGTQVTVSS", "polyreactivity (PSR sort gate)": "low polyreactivity"}
{"sequence": "QVQLVESGGGLVQAGGSLRLSCAASGRILDKYAMGWYRPAPGKERELVARIRFSGGDTYADSVKGRFTISRDNAKNTVYLQMNSLKPEDTAVYYCNKDRRNRWDAFDYWGQGTQVTVSS", "polyreactivity (PSR sort gate)": "low polyreactivity"}
{"sequence": "QVQLVESGGGLVQAGGSLRLSCAASGRILDYYAMGWYRQAPGKERELVAAIRRRGVITYADSVKGRFTISRDNAKNTVYLQMNSLKPEDTAVYYCAAGGYEYGYWGQGTQVTVSS", "polyreactivity (PSR sort gate)": "low polyreactivity"}
{"sequence": "QVQLVESGGGLVQAGGSLRLSCAASGRILEGYAMGWYRQAPGKEELVAAITSDASTYYADSVKGRFTMSRDNAKNTVYLQINSLKPEDTAVYYCAADTYDNDYYYWGQGTLVTVSS", "polyreactivity (PSR sort gate)": "high polyreactivity"}
{"sequence": "QVQLVESGGGLVQAGGSLRLSCAASGRILGAYAMGWYRQAPGKERELVASISSGGRTYYADSVKGRFTISRDNAKNTVYLQMNSLKPEDTAVYYCAAYVYTSFLYYYWGQGTQVTVSS", "polyreactivity (PSR sort gate)": "high polyreactivity"}
{"sequence": "QVQLVESGGGLVQAGGSLRLSCAASGRILGFYAMGWYRQAPGKEMELVARINWSGTRTYYADSVKGRFTISRDNAKNTVYLQMNSLKPEDTAVYYCAAERYPYGVTYSKLDYWGQGTQVTVSS", "polyreactivity (PSR sort gate)": "high polyreactivity"}
{"sequence": "QVQLVESGGGLVQAGGSLRLSCAASGRILGFYAMGWYRQAPGKERELDARINWSGTRTYYADSVKGRFTISRDNAKNTVYLQMNSLKPEDTAVYYCAAERYPYGVTYSKLDYWGQGTQVTVSS", "polyreactivity (PSR sort gate)": "high polyreactivity"}
{"sequence": "QVQLVESGGGLVQAGGSLRLSCAASGRILGGNAMGWYRQAPGKERELVAAITSGGTTNYADSVKGRFTISRDNAKNTVYLQMNSLKPEDTAVYYCNADWTDGDWADMDYWGQGTQVTVSS", "polyreactivity (PSR sort gate)": "low polyreactivity"}
{"sequence": "QVQLVESGGGLVQAGGSLRLSCAASGRILIGYTMGWYRQAPGTERELVARNNYSGGSTYYADSVKGRFTISRDISKNTVYLQMNSLKPEESGDYYCAADVRRGYYTWPPRRVYYWGQGTQVTVSS", "polyreactivity (PSR sort gate)": "high polyreactivity"}
{"sequence": "QVQLVESGGGLVQAGGSLRLSCAASGRILIHYAMRWYRQAPGKERELVAAIDNSVSTYYADSVKGRFTISRDNAKNTVYLQMNSLKPEDTAVYYCAADHWTHSVWGSGYKYYYWGQGTQVTVSS", "polyreactivity (PSR sort gate)": "high polyreactivity"}
{"sequence": "QVQLVESGGGLVQAGGSLRLSCAASGRILKSYAMGWCRHAPGKERELVAAIRSGGSTYYADSVKGRFTISRDNAKNTVYLQMYSLKPEDTAVYYCNRVTRTWKVNYHYWGQGTQVTVSS", "polyreactivity (PSR sort gate)": "high polyreactivity"}
{"sequence": "QVQLVESGGGLVQAGGSLRLSCAASGRILKWYAMGWYRQAPGKERELVAAISARGGSTFYADSVKGRFTISRDNAKNTVYLQMNSLKPEDTAVYYCNTYYRGGPYDVAYDYWGQGTEVTVSS", "polyreactivity (PSR sort gate)": "high polyreactivity"}
{"sequence": "QVQLVESGGGLVQAGGSLRLSCAASGRILLGNVMGWYRQAPGKERELVAAISIGGNTNYADSVKGRFTISRDNANNTVYLQMNSLKPEDTAVYYCNARSLVFPITFWEYDYWGEGTQVTVSS", "polyreactivity (PSR sort gate)": "low polyreactivity"}
{"sequence": "QVQLVESGGGLVQAGGSLRLSCAASGRILNYNAMGWYRQAPGKERELVAAITSSGGSTYYADSVKGRFTISRDNAKNTVYLQMNSLKPEDTAVYYCNALITYSSDYWGQGTQVTVSS", "polyreactivity (PSR sort gate)": "low polyreactivity"}
{"sequence": "QVQLVESGGGLVQAGGSLRLSCAASGRILPFNAMGWYRQAPGKERELVAAIRWRGSSTYYADSVKGRFTISRDIAKNTVYLQMNSLKPEDTAVYYCAAPSSVRGKVISAYYGYWGQGTQVTVSS", "polyreactivity (PSR sort gate)": "high polyreactivity"}
{"sequence": "QVQLVESGGGLVQAGGSLRLSCAASGRILPFYAMGWYRQAPGKERELVATISWTSDSTYYADSVKGRFTISRDNAKNTVYLQMNSLKPEDTAVYYCAREYTYTYASTVIYDHWGQGTQVTVSS", "polyreactivity (PSR sort gate)": "low polyreactivity"}
{"sequence": "QVQLVESGGGLVQAGGSLRLSCAASGRILRGNAMGWYRQAPGKERELVADINYSDGSTYYADSVKGRFTISRDNAKNTVYLQMNSLKPEDTAVYYCAADLRITSYNSWGHGTQVTVSS", "polyreactivity (PSR sort gate)": "low polyreactivity"}
{"sequence": "QVQLVESGGGLVQAGGSLRLSCAASGRILRRNTMGWYRQAPGKERELVATITRGGGNTYADSVKGRFTISRDNAKNTVYLQMNSLKPEDTAVYYCARAYGSYDYWGQGTQVTVSS", "polyreactivity (PSR sort gate)": "high polyreactivity"}
{"sequence": "QVQLVESGGGLVQAGGSLRLSCAASGRILRSYAMGWYRQAPGKERELVAAISWRGGSTYYADSVKGRFTISRDNAKNTVYLQMNSLKPEDTAVYYCAKRSYYPARYDYWGQGTQVTVSS", "polyreactivity (PSR sort gate)": "high polyreactivity"}
{"sequence": "QVQLVESGGGLVQAGGSLRLSCAASGRILSEYPMGWYRQARGKERELVAAITISDGSTYYADSVKGRFTISRDNAKNTVYLQMNSVNPDDTAVYYCAADSYDYNPAYLFCYKYYYWGQGSQVTVSS", "polyreactivity (PSR sort gate)": "low polyreactivity"}
{"sequence": "QVQLVESGGGLVQAGGSLRLSCAASGRILSVYAMGWYRQAPGKERELVAAIEYSGGSTNYADSVKGRFTISRDNAKHTVYLQMNSLKPEDTAVYYCNREGGAIAWRYLLEYLYSWGQGTQVTVSS", "polyreactivity (PSR sort gate)": "low polyreactivity"}
{"sequence": "QVQLVESGGGLVQAGGSLRLSCAASGRILSYYAMGWYRQAPGKERELVATISASGGSTFYADSVKGRFTISRDNAKNTVYLQMNSLKPEDTAVYYCNAYWGRRVQRDYWGQGTQVTVSS", "polyreactivity (PSR sort gate)": "high polyreactivity"}
{"sequence": "QVQLVESGGGLVQAGGSLRLSCAASGRILTFYGLGWYRQAPGKERELVAAISNGGSTYYADSVKGRFTISRDNAKNTVYLQMNSLKPEDTAVYYCAKRILTAPRRNSGYDYWGQGTQVTVSS", "polyreactivity (PSR sort gate)": "low polyreactivity"}
{"sequence": "QVQLVESGGGLVQAGGSLRLSCAASGRILVPNAMGWYRQAPGKERELVATITSSGSTYADSVKGRFTISRDNAKNTVYLQMNSLKPEDTAVYYCAAKYTGSFINYGLWGTYFEDDYWGQGTQVTVSS", "polyreactivity (PSR sort gate)": "low polyreactivity"}
{"sequence": "QVQLVESGGGLVQAGGSLRLSCAASGRILVYYAMGWYRQAPGKEREFVAAISQRGGSTYYADSVKGRFTISRDNAKNTVYLQMNSLKPEDTAVYYCATRPIQYRRGYDYWGQGTQVTVSS", "polyreactivity (PSR sort gate)": "high polyreactivity"}
{"sequence": "QVQLVESGGGLVQAGGSLRLSCAASGRILWSYAMGWYRQAPGKERELVASISGRGGSTYYADSVKGRFTISRDNAKNTVYLQMNSLKPEDTAVYYCAAYRLRFWSMDYWGQGTQVTVSS", "polyreactivity (PSR sort gate)": "high polyreactivity"}
{"sequence": "QVQLVESGGGLVQAGGSLRLSCAASGRILYGYAMGWYRQAPGTERELVASLSSGGRTYYADSVKGRFTISRDNAKNTVYLQMNSLKPEDTAVYYCAAVAYGNWYRYYYWGQGTQVTVSS", "polyreactivity (PSR sort gate)": "high polyreactivity"}
{"sequence": "QVQLVESGGGLVQAGGSLRLSCAASGRILYGYVMGWYRQAPGKERELVAAISWSGARTYYADSVKGRFTISRDNAKNTVYLQMNSLKPEDTAVYYCAARVPSWKYDYWGQGTQVTVSS", "polyreactivity (PSR sort gate)": "high polyreactivity"}
{"sequence": "QVQLVESGGGLVQAGGSLRLSCAASGRILYHYAMGWYRQAPGKERELVAAITFSGDTTYYADSVKGRFTISRDNAKNTVYLQMNSLKPVDTAVYYCNTVYYWNYVSRLYDYWGQGTQVTVSS", "polyreactivity (PSR sort gate)": "high polyreactivity"}
{"sequence": "QVQLVESGGGLVQAGGSLRLSCAASGRILYLNAMGWYRQAPGKERELVAAITRRAGSTRYADSVKGRFTISRDNAKNTVYLQMNSLKPEDTAVYYCAVAYYRNRMDYWGQGTQVTVSS", "polyreactivity (PSR sort gate)": "high polyreactivity"}
{"sequence": "QVQLVESGGGLVQAGGSLRLSCAASGRILYPYAMGWYRQAPGKERELVASISWSGGRTYYADSVKGRFTISRDHAKYTVYLQMNSLKPEDTAVYYCAATFSYSSYIYDYWGQGTQVTVSS", "polyreactivity (PSR sort gate)": "high polyreactivity"}
{"sequence": "QVQLVESGGGLVQAGGSLRLSCAASGRILYQYAMGWYRQAPGKERELVASISGRSGRTRYADSVKGRFTISRDNAKNTVYLQMNSLKPEDTAVYYCNAGSSVLKYDYWGQGTQVTVSS", "polyreactivity (PSR sort gate)": "low polyreactivity"}
{"sequence": "QVQLVESGGGLVQAGGSLRLSCAASGRILYQYAMGWYRQAPGKVRELVASISGRSGRTRYADSVKGRFTISRDIAKNTVSLQMNSLKPEDTAVYYCYAGTSVLKYDYWGQGTQVTVSS", "polyreactivity (PSR sort gate)": "low polyreactivity"}
{"sequence": "QVQLVESGGGLVQAGGSLRLSCAASGRILYSYAMGWYRQAPGKEREFVAAIRRSGGSTYYADSVKGRFSISRDNAKNTVYLQMNSLKPEDTAVYYCAAGRRYSGSYDYWGQGTQVTVSS", "polyreactivity (PSR sort gate)": "high polyreactivity"}
